Laboratory results published in US20150110786A1 (YEDA RESEARCH AND DEVELOPMENT, published 2015).

T1: Recombinant human QSOX1 (HsQSOX1 33-546) (human, UniProt O00391 33-546, bound FAD cofactor)
T1 sequence: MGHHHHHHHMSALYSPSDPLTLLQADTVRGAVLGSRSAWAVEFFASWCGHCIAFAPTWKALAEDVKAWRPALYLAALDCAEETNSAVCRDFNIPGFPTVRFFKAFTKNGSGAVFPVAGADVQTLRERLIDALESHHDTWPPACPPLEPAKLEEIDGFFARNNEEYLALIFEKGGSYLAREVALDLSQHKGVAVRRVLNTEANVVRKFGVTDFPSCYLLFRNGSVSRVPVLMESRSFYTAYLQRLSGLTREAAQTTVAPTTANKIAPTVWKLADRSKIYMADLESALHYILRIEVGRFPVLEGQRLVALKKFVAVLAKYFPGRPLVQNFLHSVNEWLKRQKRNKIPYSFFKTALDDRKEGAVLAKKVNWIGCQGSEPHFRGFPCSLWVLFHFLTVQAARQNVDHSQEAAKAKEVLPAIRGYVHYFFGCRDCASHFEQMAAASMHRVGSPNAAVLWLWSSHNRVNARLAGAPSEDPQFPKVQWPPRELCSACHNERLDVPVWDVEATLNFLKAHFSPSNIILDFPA

T2: HsQSOX1Erv (carboxy-terminal fragment of human QSOX1, psi-Erv and Erv domains) (human, UniProt O00391 286-546, limits assumed, bound FAD cofactor)
T2 construct: domain: carboxy-terminal fragment, HsQSOX1Erv (two Erv-fold domains); also called HsQSOX1 carboxy-terminal fragment
T2 sequence (looked up): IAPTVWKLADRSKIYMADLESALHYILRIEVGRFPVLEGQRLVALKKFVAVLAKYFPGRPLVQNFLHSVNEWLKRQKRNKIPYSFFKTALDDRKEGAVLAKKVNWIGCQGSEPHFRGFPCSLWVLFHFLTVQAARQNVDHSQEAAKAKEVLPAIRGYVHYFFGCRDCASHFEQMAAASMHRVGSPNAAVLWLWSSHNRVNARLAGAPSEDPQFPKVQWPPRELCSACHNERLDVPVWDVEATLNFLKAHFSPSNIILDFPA

B1: scFv492.1 (scFv)
scFv: QVQLKQSGPGLVAPSQSLSITCTVSGFSLTGYGVNWVRQSPGKGLEWLGMIWGDGRTDYKSALKSRLSITKDNSKSQVFLKMNSLQTDDTARYFCASDYYGSGSFAYWGQGTLVTVSAGGGGSGGGGSGGGGSDVVMTQTHKFMSTSVGDRVSITCKASQDVSTAVAWYQQKSGQSPKLLIHSASYRYTGVPDRFTGSGSGTDFTFTISSVQAEDLAVYYCQQHYSIPLTFGAGTKLELK
notes: also called single chain antibody fragment of MAb492.1; not shown: thrombin-cleavable His6-tag at the amino terminus
B2: MAb492.1 (antibody, V domains shown)
VH: QVQLKQSGPGLVAPSQSLSITCTVSGFSLTGYGVNWVRQSPGKGLEWLGMIWGDGRTDYKSALKSRLSITKDNSKSQVFLKMNSLQTDDTARYFCASDYYGSGSFAYWGQGTLVTVSA
VL: DVVMTQTHKFMSTSVGDRVSITCKASQDVSTAVAWYQQKSGQSPKLLIHSASYRYTGVPDRFTGSGSGTDFTFTISSVQAEDLAVYYCQQHYSIPLTFGAGTKLELK
notes: also called anti-QSOX1 monoclonal antibody; QSOX1-specific monoclonal antibody
B3: Fab492.1 (Fab fragment of MAb492.1) (Fab, V domains shown)
VH: QVQLKQSGPGLVAPSQSLSITCTVSGFSLTGYGVNWVRQSPGKGLEWLGMIWGDGRTDYKSALKSRLSITKDNSKSQVFLKMNSLQTDDTARYFCASDYYGSGSFAYWGQGTLVTVSA
VL: DVVMTQTHKFMSTSVGDRVSITCKASQDVSTAVAWYQQKSGQSPKLLIHSASYRYTGVPDRFTGSGSGTDFTFTISSVQAEDLAVYYCQQHYSIPLTFGAGTKLELK

Tests used:
[1] = biological target: T1, Recombinant human QSOX1 (HsQSOX1 33-546); experiment: cell-based or functional assay
[2] = biological target: T1, Recombinant human QSOX1 (HsQSOX1 33-546); experiment: calculated from the IC50 of the rdRNase oxidation colorimetric assay with the equation for competitive inhibition
Procedure: Reactions of 100 μL volume were conducted in 96 well plates (Nunc). Reduced and denatured RNaseA (Sigma) was used as a model substrate and was prepared as follows. Ten mg RNase was dissolved in 1 ml of 20 mM phosphate buffer, pH 6.5, 6 M GuHCl, and 100 mM DTT, and incubated at 37° C. for 1 hr. The protein was desalted on a PD-10 column (GE Healthcare) equilibrated with DDW, and its thiol content was determined by DTNB absorbance at 412 nm. 50 nM recombinant HsQSOX1 and various concentrations of monoclonal antibody clones were incubated for 30 min at RT. Reactions were initiated with the addition of 200 μM RNase thiols and were quenched after 25 min with 1 mM DTNB. Absorbance was measured at 405 nm in a microplate reader.

[3] = biological target: T2, HsQSOX1Erv (carboxy-terminal fragment …); experiment: ELISA
[4] = biological target: T1, Recombinant human QSOX1 (HsQSOX1 33-546); experiment: oxygen consumption assay, 25 nM HsQSOX1, 1-250 nM MAb492.1, 200 µM DTT, fit to a tight-binding inhibitor model
Procedure: A Clarke-type oxygen electrode (Hansatech Instruments) was used to monitor changes in dissolved oxygen concentrations as a measure of HsQSOX1 activity. […] Reactions were started by injection of dithiothreitol (DTT) to a concentration of 200 μM in the electrode reaction chamber. […] The ratios of the initial rates of HsQSOX1 in the presence and absence of inhibitor were plotted as a function of inhibitor concentration.
This assay allows direct determination of initial velocities and not just degree of activity.

Row | Binder | IC50, inhibition of rdRNase oxidation (DTNB colorimetric assay), 50 nM HsQSOX1 [1] [nM] | Ki [2] [nM] | binding result [3] | IC50, inhibition of rdRNase oxidation (DTNB colorimetric assay), 250 nM HsQSOX1 [1] [nM] | Ki [4] [nM]
1 | B1 | 250 | 130 | – | – | –
2 | B2 | 60 | – | no binding | 240 | 1
3 | B3 | 100 | – | – | – | –
